Laboratory results as given in patent US20180021429A1, “ANTICANCER AGENTS OR ANTIMETASTATIC AGENTS USING FSTL1 AND COMBINATION DRUG THEREOF” (PHARMA FOODS INTERNATIONAL CO., LTD., priority 2015, published 2018).
Entries after “also recorded” stand apart in the source; their conditions may differ.

Assays:
[1] = tested on: mouse breast cancer 4T1 cells; experiment: In vivo, mouse breast cancer 4T1 cell-transplanted model (Example 21); conditions: BALB/c mice; intraperitoneal 10 mg/kg on days 4 and 7
Protocol: Procedures and methods of the experiment were basically performed according to Examples 17 to 20 under substantially the same conditions as in the bone metastasis model experiments of Examples 17 to 20. Drug efficacy evaluation was conducted using mouse tumor models other than Snail-positive tumor bone metastasis models. The drug efficacy of the anti-FSTL1 antibody was evaluated using cancer-bearing models of BALB/c mice different in strain from the C57BL/6 mice used in the preceding tests. Changes were made as follows. • Day 0: transplantation of tumor cells (5×10^5 cells subcutaneously & 5×10^5 cells intravenously) Days 4 and 7: intraperitoneal administration of the antibody (10 mg/kg) • Day 14: drug efficacy evaluation (subcutaneous tumor growth)
The tumor volumes of the mice were measured 4, 7, 11, and 14 days after tumor implantation.

[2] = tested on: various human tumor cells; experiment: Proliferative capacity and invasive capacity of various human tumor cells (Example 26); assay type: cell-based; conditions: antibody 5 μg/ml, particularly in a highly metastatic tumor cell line highly expressing Snail, FIG. 114A
Protocol: Specifically, the influence of the anti-FSTL1 antibody on proliferative capacity and invasive capacity was studied using various human tumor cells, regardless of the presence or absence of the expression of Snail or FSTL1. Specifically, the anti-FSTL1 antibody (#6-55, 5 μg/ml) or a control antibody (aHema: mouse chimeric anti-hemagglutinin antibody, 5 μg/ml) was added to systems in which a pancreatic cancer cell line Panc1 (ATCC #CRL-1469), Panc1-snail+ which is a Panc1 cell line forced to express Snail, a pancreatic cancer cell line MIAPaCa (ATCC #CRL-1420), a bone metastatic breast cancer cell line MDA231 (ATCC #HTB-26), and a melanoma cell line Hs294T (ATCC IHTB-140) were each cultured at 1×10^5 cells. After culture for 3 days, the number of cells per culture system was counted to evaluate the proliferative capacity of the cells. The cells (5×10^4 cells) after the counting were further inoculated to Matrigel-coated transwell chamber (Corning Inc. #354480) and cultured for 4 hours. Then, the membranes were removed, and stained and fixed with Crystal Violet fixative. Then, the number of cells that permeated the membranes was counted under a microscope to evaluate the invasive capacity of the cells.

Panc1-snail+ = experiment: Action of anti-FSTL1 antibody on Panc1-snail+ cells forced to express Snail (invasion, CCR2 and RANKL expression); assay type: cell-based, human; conditions: antibody 5 μg/ml
Protocol: Cell invasion was evaluated in the presence of the anti-FSTL1 antibody (#6-55, 5 μg/ml) or a control antibody (aHema, 5 μg/ml) in a chamber using Panc1-snail+, a cell line forced to express Snail, instead of the FSTL1-stimulated tumor cells of the preceding paragraph.
In this Example, Panc1-snail+ cells were cultured for 3 days in the presence of the added antibody. Then, the expression of CCR2 and RANKL among molecules known as bone metastasis markers was analyzed by flow cytometry. […] The anti-FSTL1 antibody presumably has inhibitory activity against cell invasion (FIG. 50D).
In this Example, Panc1-snail+ cells were cultured for 3 days in the presence of the added antibody. Then, the expression of CCR2 and RANKL among molecules known as bone metastasis markers was analyzed by flow cytometry. […] The anti-FSTL1 antibody presumably has inhibitory activity against cell invasion (FIG. 82D).

FSTL1 = target: T1, FSTL1 (Homo sapiens, UniProt Q12841); experiment: Ability of FSTL1-induced MSCs from mouse bone marrow cells to differentiate into adipocytes (Examples 14, 16); assay type: cell-based; parameters: purchased R&D Systems, Inc. 1694-FN-050; conditions: Example 16; antibody doses as in Example 15
T1 sequence (Q12841 21-308): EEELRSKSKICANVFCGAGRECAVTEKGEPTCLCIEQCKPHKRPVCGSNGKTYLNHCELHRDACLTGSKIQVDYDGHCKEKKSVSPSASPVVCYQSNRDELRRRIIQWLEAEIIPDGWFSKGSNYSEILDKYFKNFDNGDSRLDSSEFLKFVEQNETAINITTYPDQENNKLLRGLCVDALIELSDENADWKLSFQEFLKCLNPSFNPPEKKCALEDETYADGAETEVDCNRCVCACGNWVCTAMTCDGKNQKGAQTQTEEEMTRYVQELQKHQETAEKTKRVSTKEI
Protocol: The antibody clone (#6-55, #7, […], #13, or #22) was evaluated for its activity by the same testing method as in Example 13. #6-55 was set as a positive control for activity. […] Mouse bone marrow cells were supplemented with FSTL1 and the predetermined concentration of each antibody and cultured for 8 days. 5×10^4 cells/well were separated from each culture system and evaluated for the ability to differentiate into adipocytes using an adipocyte differentiation reagent included in “Mesenchymal Stem Cell Functional Identification Kit (R&D Systems, Inc., Cat. No. SCO10)”. For the evaluation method, the cells were supplemented with the adipocyte differentiation reagent and cultured for 8 days. Then, adipocytes per culture system were counted under a microscope for evaluation. […]
In the same way as in Example 15, mouse bone marrow cells were supplemented with FSTL1 and the predetermined concentration of each antibody and cultured for 8 days. 5×10^4 cells/well were separated from each culture system and evaluated for the ability to differentiate into adipocytes using an adipocyte differentiation reagent included in “Mesenchymal Stem Cell Functional Identification Kit (R&D Systems, Inc., Cat. No. SC010)”. […] Then, adipocytes per culture system were counted under a microscope for evaluation (FIG. 40B). […]

B1: #6-55: chicken-mouse chimeric anti-FSTL1 antibody clone; variable regions SEQ ID NO: 783 (light), 785 (heavy) (antibody, V domains shown)
VH: AVTLDESGGGLQTPGGALSLVCKGSGFTFTSVTMQWVRQAPGKGLEWVASVCSGSSTYYAPAVKGRATISRDNGQSTVRLQLSNLRPEDTGTYYCAKIAGRARWSCTSAAYNIDAWGHGTEVIVSS
VL: ASTQPSSVSAIPGETVKITCSGGGNNYGWYQQRSPGSAPVTVIYYNDNRPSNIPSRFSGSTSGSTSTLTITGVQADDEAIYYCGSWDSNTDSGIFGAGTTLTVL
modifications: mouse constant regions
Question: B1 was tested. Which “growth of 4T1 subcutaneous tumor” value [1] did it give?
Answer: Its value is “significantly suppressed”.

Question: And the “proliferative capacity of tumor cells” value ([2]; 3 days)?
Answer: Its value is “strongly suppressed”.

Question: And the “invasive capacity of tumor cells” value ([2]; Matrigel-coated transwell, 4 hours)?
Answer: Its value is “strongly suppressed”.

Question: And the cell invasion (Panc1-snail+)?
Answer: Its cell invasion is “suppressive activity was able to be confirmed”.

Question: What about the “cells differentiating into adipocytes / induction of MSCs having the ability to differentiate into adipocytes” value (FSTL1) of the same molecule?
Answer: Its value is “decreased in number by the addition of #6-55 in a dose-dependent manner; also recorded: inhibited by 46-55 in an antibody dose-dependent manner; also recorded: inhibited by #6-55 in an antibody dose-dependent manner”.
